Experimental data: patent US20250042994A1 (HAINAN SIMCERE ZAIMING PHARMACEUTICAL, published 2025)

Tests used:
[1] = molecular target: T1, human CD19 on Raji cells (human, UniProt P15391 20-556); test: FACS on Raji cells
T1 construct: whole, on cells
T1 sequence (looked up): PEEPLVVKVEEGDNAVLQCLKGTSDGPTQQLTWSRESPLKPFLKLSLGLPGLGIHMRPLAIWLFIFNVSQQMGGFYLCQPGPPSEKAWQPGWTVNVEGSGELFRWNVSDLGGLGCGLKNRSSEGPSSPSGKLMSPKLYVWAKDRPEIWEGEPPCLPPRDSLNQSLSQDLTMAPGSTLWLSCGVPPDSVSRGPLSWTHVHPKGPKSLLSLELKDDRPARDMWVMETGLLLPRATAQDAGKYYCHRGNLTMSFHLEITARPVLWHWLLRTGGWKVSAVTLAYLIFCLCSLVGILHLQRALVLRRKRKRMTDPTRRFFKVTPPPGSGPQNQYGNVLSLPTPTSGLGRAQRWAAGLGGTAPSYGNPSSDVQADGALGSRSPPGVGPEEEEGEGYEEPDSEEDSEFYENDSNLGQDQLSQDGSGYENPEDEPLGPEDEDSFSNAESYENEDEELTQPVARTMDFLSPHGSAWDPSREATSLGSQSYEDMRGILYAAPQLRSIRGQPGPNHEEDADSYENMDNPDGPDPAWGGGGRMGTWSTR
Experimental: (§1) After the digestion was terminated, the cells were washed 2 times with a PBS buffer; and for suspension cell Raji, the supernatant of the medium was discarded by directly centrifugation, and the cell pellet was washed 2 times with PBS. After counting the cells in the previous step, the cell pellet was resuspended with [PBS+2% (w/w) BSA] blocking solution to 2×10⁶ cells/ml, and added to a 96-well FACS reaction plate at 50 μl/well, and then the sample to be tested was added at 50 μl/well, and incubated on ice for 2 h. The obtained mixture was centrifuged and washed 3 times with a PBS buffer. […] The obtained mixture was centrifuged and washed 5 times with a PBS buffer, and FACS (FACS Canto™, purchased from BD Company) was used for detection and result analysis. Data analysis was performed by software (FlowJo) to obtain the mean fluorescence intensity (MFI) of the cells. And then software (GraphPad Prism8) was used for analysis, data fitting, and EC50 value calculation. […] The same method was used to detect the binding of the chimeric antibodies to endogenous CD19-negative cells, MoLT4 cells (purchased from ATCC, CRL-1582), and CHO-K1 cells.

[2] = molecular target: T2, Human CD19-his protein (human, UniProt P15391 20-291); test: ELISA, coated human CD19-His
T2 construct: bought protein; also called recombinant human CD19-His; CD19 full-length protein; not shown: His tag
T2 sequence (looked up): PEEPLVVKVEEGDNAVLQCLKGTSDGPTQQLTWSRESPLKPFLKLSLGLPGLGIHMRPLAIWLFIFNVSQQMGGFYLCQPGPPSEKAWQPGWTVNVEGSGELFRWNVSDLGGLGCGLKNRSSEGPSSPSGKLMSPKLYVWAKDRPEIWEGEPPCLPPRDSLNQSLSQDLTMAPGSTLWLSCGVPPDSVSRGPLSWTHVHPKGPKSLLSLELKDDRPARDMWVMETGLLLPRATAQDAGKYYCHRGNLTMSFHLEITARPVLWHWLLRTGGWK
Experimental: Human CD19-his protein (purchased from ACROBiosystems, catalog number: CD9-H52H2) was diluted with PBS to a final concentration of 4 μg/mL, and then added to a 96-well ELISA plate at 100 μl/well. The plate was sealed with a plastic film and incubated overnight at 4° C., the plate was washed 2 times with PBS the next day, and then a blocking solution [PBS+2% (w/w) BSA] was added for blocking at room temperature for 2 h. The blocking solution was poured off, and 100 nM gradiently diluted CD19 chimeric antibody or control antibody was added at 50 μl/well. After incubation at 37° C. for 2 h, the plate was washed 3 times with PBS. […] TMB substrate was added at 50 μl/well, and incubated at room temperature for 10 min, and then a stop solution (1.0 N HCl) was added at 50 μl/well. The OD450 nm values were read by an ELISA microplate reader (Multimode Plate Reader, EnSight, purchased from Perkin Elmer).

[3] = molecular target: T3, human CD19 on CHO-K1-human CD19 cells (human, UniProt P15391 20-556); test: FACS on CHO-K1-human CD19 cells
T3 construct: whole, on cells; also called CHO-K1-human CD19-2C8
T3 sequence (looked up): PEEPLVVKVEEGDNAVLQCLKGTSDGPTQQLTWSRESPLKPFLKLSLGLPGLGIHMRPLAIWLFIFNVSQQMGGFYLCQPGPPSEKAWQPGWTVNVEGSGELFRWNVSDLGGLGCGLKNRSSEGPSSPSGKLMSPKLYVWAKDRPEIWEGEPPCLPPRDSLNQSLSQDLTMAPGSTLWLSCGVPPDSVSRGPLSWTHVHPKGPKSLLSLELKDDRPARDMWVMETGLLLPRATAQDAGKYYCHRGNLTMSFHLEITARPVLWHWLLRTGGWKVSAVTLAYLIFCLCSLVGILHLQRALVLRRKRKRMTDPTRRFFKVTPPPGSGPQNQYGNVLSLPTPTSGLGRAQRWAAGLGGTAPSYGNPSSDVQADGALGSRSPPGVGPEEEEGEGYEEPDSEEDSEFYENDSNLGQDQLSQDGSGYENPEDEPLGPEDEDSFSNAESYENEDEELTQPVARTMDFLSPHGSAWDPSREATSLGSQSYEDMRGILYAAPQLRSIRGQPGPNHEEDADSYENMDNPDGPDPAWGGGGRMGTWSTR
Experimental: as §1

[4] = molecular target: T2, Human CD19-his protein; test: ELISA on coated human CD19-His
[5] = molecular target: T4, human CD19 exon1-3-His tag protein (human, UniProt P15391 20-186, limits assumed); test: ELISA, coated human CD19 exon 1-3-His
T4 construct: membrane-distal part of the extracellular region, made in HEK293E cells; not shown: His tag
T4 sequence (looked up): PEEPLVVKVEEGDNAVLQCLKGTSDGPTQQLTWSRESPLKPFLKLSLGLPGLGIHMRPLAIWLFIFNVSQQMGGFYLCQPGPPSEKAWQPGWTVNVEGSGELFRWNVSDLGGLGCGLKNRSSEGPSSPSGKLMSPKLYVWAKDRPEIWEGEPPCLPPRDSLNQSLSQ

[6] = molecular target: T2, Human CD19-his protein; test: SPR Biacore, method of example 7.1, human CD19-His
Experimental: A sample buffer and a running buffer were HBS-EP+ (10 mM HEPES, 150 mM NaCl, 3 mM EDTA and 0.05% surfactant P20) (GE Healthcare; BR-1006-69). The flow-through cell was set to 25° C. The sample block was set to 16° C. Both were pretreated with the running buffer. In each cycle, an antibody to be detected was first captured with a Protein A chip, and then a single concentration of CD19 antigen protein was injected. The binding and dissociation processes of the antibody and the antigen protein were recorded, and finally Glycine pH 1.5 (GE Healthcare; BR-1003-54) was used to complete chip regeneration. The binding was measured by injecting different concentrations of recombinant human CD19-His proteins in a solution for 240 s with a flow rate of 30 μl/min. The concentration started from 200 nM (see the detailed results for the actual concentration in the test) and was diluted at 1:1, making a total of 5 concentrations. The dissociation phase was monitored for up to 600 s and was triggered by switching from sample solution to running buffer. The surface was regenerated by washing with a 10 mM glycine solution (pH 1.5) for 30 s at a flow rate of 30 μl/min. Bulk refractive index difference was corrected by subtracting the response obtained from the goat anti-human Fc surface. Blank injection was also subtracted (=double reference). For calculation of apparent KD and other kinetic parameters, Langmuir 1:1 model was used.
SPR (biacore) detection and data analysis were performed according to the method in example 7.1.

EC50 [1] [nM]	Maximum mean fluorescence intensity [1] [MFI]	OD450 at 0.0001 nM [2] [OD450]	OD450 at 0.001 nM [2] [OD450]	OD450 at 0.01 nM [2] [OD450]	OD450 at 0.10 nM [2] [OD450]	OD450 at 1.00 nM [2] [OD450]	OD450 at 10 nM [2] [OD450]	OD450 at 100 nM [2] [OD450]	EC50 [3] [nM]	Maximum mean fluorescence intensity [3] [MFI]	EC50 (read off the curve) [4] [nM]	OD450 at 0.0001 nM [5] [OD450]	OD450 at 0.001 nM [5] [OD450]	OD450 at 0.01 nM [5] [OD450]	OD450 at 0.10 nM [5] [OD450]	OD450 at 1.00 nM [5] [OD450]	OD450 at 10 nM [5] [OD450]	OD450 at 100 nM [5] [OD450]	Kd [6] [nM]	also measured	Binder
0.43	31700	0.1	0.13	0.39	1.7	2.68	2.58	3	1.23	54200	~0.05	0.05	0.05	0.05	0.05	0.05	0.06	0.09	0.00058	koff [6]: 6.84e-08 s⁻¹; kon [6]: 118000 M⁻¹ s⁻¹	F3.121.4-L1H2 (antibody, mouse IgG1, kappa, V domains shown, humanized antibody of F3.121.4, VL1+VH2, murine IgG1 constant regions) VH: EVQLVQSGAEVKKPGASVKVSCKASGYTFTNYWMHWVRQAPGQGLEWMGEIDPSDNYANYNQEFQGRVTITVDKSASTAYMELSSLRSEDTAVYYCARHDGYFGALDYWGQGTTVTVSS VL: EIVLTQSPATLSLSPGERATLSCSASSSISSNYLHWYQQKPGQAPRFLIYRTSNLASGIPARFSGSGSGTDFTLTISSLEPEDFAVYYCQQASSIPRMFTFGQGTKLEIKR
0.46	32000	0.1	0.14	0.42	1.61	2.55	2.49	3.09	1.1	54400	~0.05	0.05	0.05	0.05	0.05	0.05	0.05	0.09	0.00502	koff [6]: 6.17e-07 s⁻¹; kon [6]: 123000 M⁻¹ s⁻¹	F3.121.4-L1H3 (antibody, mouse IgG1, kappa, humanized antibody of F3.121.4, VL1+VH3, murine IgG1 constant regions) heavy: EVQLVQSGAEVKKPGASVKVSCKASGYTFTNYWMHWVRQRPGQGLEWMGEIDPSDNYANYNQEFQGRVTITVDKSASTAYMELSSLRSEDTAVYYCARHDGYFGALDYWGQGTTVTVSSAKTTPPSVYPLAPGSAAQTNSMVTLGCLVKGYFPEPVTVTWNSGSLSSGVHTFPAVLQSDLYTLSSSVTVPSSTWPSETVTCNVAHPASSTKVDKKIVPRDCGCKPCICTVPEVSSVFIFPPKPKDVLTITLTPKVTCVVVDISKDDPEVQFSWFVDDVEVHTAQTQPREEQFNSTFRSVSELPIMHQDWLNGKEFKCRVNSAAFPAPIEKTISKTKGRPKAPQVYTIPPPKEQMAKDKVSLTCMITDFFPEDITVEWQWNGQPAENYKNTQPIMDTDGSYFVYSKLNVQKSNWEAGNTFTCSVLHEGLHNHHTEKSLSHSPGK light: EIVLTQSPATLSLSPGERATLSCSASSSISSNYLHWYQQKPGQAPRFLIYRTSNLASGIPARFSGSGSGTDFTLTISSLEPEDFAVYYCQQASSIPRMFTFGQGTKLEIKRADAAPTVSIFPPSSEQLTSGGASVVCFLNNFYPKDINVKWKIDGSERQNGVLNSWTDQDSKDSTYSMSSTLTLTKDEYERHNSYTCEATHKTSTSPIVKSFNRNEC
0.43	30500	0.12	0.16	0.44	1.79	2.73	2.64	2.84	1.18	51600	~0.05	0.07	0.06	0.06	0.07	0.08	0.08	0.11	0.0284	koff [6]: 3.45e-06 s⁻¹; kon [6]: 121000 M⁻¹ s⁻¹	F3.121.4-L1H1 (antibody, mouse IgG1, kappa, V domains shown, humanized antibody of F3.121.4, VL1+VH1, murine IgG1 constant regions) VH: EVQLVQSGAEVKKPGASVKVSCKASGYTFTNYWMHWVRQAPGQRLEWMGEIDPSDNYANYNQEFQGRVTITVDKSASTAYMELSSLRSEDTAVYYCARHDGYFGALDYWGQGTTVTVSS VL: EIVLTQSPATLSLSPGERATLSCSASSSISSNYLHWYQQKPGQAPRFLIYRTSNLASGIPARFSGSGSGTDFTLTISSLEPEDFAVYYCQQASSIPRMFTFGQGTKLEIKR
